Measured values published in PMC7126439.

Tests used:
GCN4-pA = assay: AUC
GCN4-pV = assay: AUC

Substance	stoichiometry N (GCN4-pA)	stoichiometry N (GCN4-pV)
GCN4-pA (peptide)	4	
GCN4-pV (peptide)		4
